{"source": "paper PMC10250219", "binders": {"B1": {"name": "Cy5 34-mer 8-oxoG:C duplex (dsDNA)", "DNA 1": "GGCTTCATCGTTGTCGCAGACCTGGTGGATACCG", "DNA 2": "CGGTATCCACCAGGTCTGCGACAACGATGAAGCC", "modifications": "8-oxoG at position 16 of strand 1 (opposite C)"}, "B2": {"name": "Cy5 34-mer G:C duplex (dsDNA)", "DNA 1": "B1 DNA 1", "DNA 2": "B1 DNA 2"}, "B3": {"name": "24-mer 8-oxoG:C duplex (dsDNA)", "DNA 1": "CTGATCGATGACGCCTGACATGAT", "DNA 2": "ATCATGTCAGGCGTCATCGATCAG", "modifications": "8-oxoG at position 13 of strand 1 (opposite C)"}, "B4": {"name": "24-mer G:C duplex (dsDNA)", "DNA 1": "CTGATCGATGACGCCTGACATGAT", "DNA 2": "ATCATGTCAGGCGTCATCGATCAG"}}, "test_in_all_cases": "EMSA", "key": {"GST-OGG1-G245A": {"target": "GST-OGG1-G245A (human, UniProt O15527 1-345, G245A)", "sequence (O15527 whole entry G245A)": "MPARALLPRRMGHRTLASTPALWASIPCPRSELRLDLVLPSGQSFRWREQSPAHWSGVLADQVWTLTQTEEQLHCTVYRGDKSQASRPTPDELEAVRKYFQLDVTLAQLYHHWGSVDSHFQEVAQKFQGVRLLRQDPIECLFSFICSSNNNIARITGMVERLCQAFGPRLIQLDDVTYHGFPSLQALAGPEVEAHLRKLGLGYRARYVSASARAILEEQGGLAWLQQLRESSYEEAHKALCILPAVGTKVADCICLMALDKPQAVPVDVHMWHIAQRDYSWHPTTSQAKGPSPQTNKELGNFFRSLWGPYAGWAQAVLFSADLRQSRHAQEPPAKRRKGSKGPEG"}, "OGG1 WT (untagged) [1]": {"target": "T1, OGG1 WT (untagged) (human, UniProt O15527 1-345)", "T1 sequence (O15527 whole entry)": "as the sequence (O15527 whole entry G245A) above, with A245G counted along it"}, "OGG1-2NA (untagged) [2]": {"target": "T2, OGG1-2NA (untagged) (human, UniProt O15527 1-345, N149A;N150A)", "T2 sequence (O15527 whole entry N149A/N150A)": "as the sequence (O15527 whole entry G245A) above, with N149A, N150A, A245G counted along it"}, "OGG1 WT (untagged) [3]": {"target": "T1, OGG1 WT (untagged)", "remark": "listed apart in the source"}, "OGG1-Y203A (untagged)": {"target": "OGG1-Y203A (untagged) (human, UniProt O15527 1-345, Y203A)", "sequence (O15527 whole entry Y203A)": "as the sequence (O15527 whole entry G245A) above, with Y203A, A245G counted along it"}, "OGG1-2NA (untagged) [4]": {"target": "T2, OGG1-2NA (untagged)", "remark": "listed apart in the source"}}, "note": "Like-named read-outs stand apart in the source and are kept apart here.", "data": [{"binder": "B1", "values": [{"measurement": "binding result", "setting": "GST-OGG1-G245A", "value": "no binding"}]}, {"binder": "B2", "values": [{"measurement": "binding result", "setting": "GST-OGG1-G245A", "value": "no binding"}]}, {"binder": "B3", "values": [{"measurement": "Kd", "setting": "OGG1 WT (untagged) [1]", "value": "0.00042 ± 3e-05", "unit": "µM"}, {"measurement": "Kd", "setting": "OGG1-2NA (untagged) [2]", "value": "0.00637 ± 0.00058", "unit": "µM"}]}, {"binder": "B4", "values": [{"measurement": "Kd", "setting": "OGG1 WT (untagged) [3]", "value": "2.22 ± 0.22", "unit": "µM"}, {"measurement": "Kd", "setting": "OGG1-Y203A (untagged)", "value": "1.97 ± 0.27", "unit": "µM"}, {"measurement": "Kd", "setting": "OGG1-2NA (untagged) [4]", "value": "0.602 ± 0.042", "unit": "µM"}]}]}
